Literature values in article PMC8395526.

Biological target: erbB2 (Homo sapiens) (UniProt P04626)
Assay: SPR

In the case of “erbB2-SbdIV subdomain IV (from UniProt P04626)”, the Kd is listed as 1890 nM.
